# Numbering of substitutions follows the chain as printed.
# B1: cAMP receptor protein from Mycobacterium tuberculosis, P9WMH3 (natural protein)
# chain: MDEILARAGIFQGVEPSAIAALTKQLQPVDFPRGHTVFAEGEPGDRLYIIISGKVKIGRRAPDGRENLLTIMGPSDMFGELSIFDPGPRTSSATTITEVRAVSMDRDALRSWIADRPEISEQLLRVLARRLRRTNNNLADLIFTDVPGRVAKQLLQLAQRFGTQEGGALRVTHDLTQEEIAQLVGASRETVNKALADFAHRGWIRLEGKSVLISDSERLARRAR
# B2: SerC promoter 32-bp, fluorescein (dsDNA)
# DNA 1: GCGCGTAGTGTGAACAAGCTCACATGCAAGCC
# DNA 2: GGCTTGCATGTGAGCTTGTTCACACTACGCGC
# How the values were obtained:
# [1] = target: T1, cAMP receptor protein from Mycobacterium tuberculosis (Mycobacterium tuberculosis), P9WMH3; assay: AUC; settings: remark: other sources report otherwise
# T1 chain: B1 chain
# [2] = target: T1, cAMP receptor protein from …; assay: SEC; settings: remark: other sources report otherwise
# CRP-MTB E178K [3] = target: T2, CRP-MTB E178K (Mycobacterium tuberculosis, UniProt P9WMH3 1-224, E178K); assay: fluorescence anisotropy; 1 mM cAMP; settings: protein: recombinant; tags: His-tag (pET-3a); chain copies: 2; blunt
# T2 sequence: B1 chain with E178K
# CRP-MTB L47P [4] = target: T3, CRP-MTB L47P (Mycobacterium tuberculosis, UniProt P9WMH3 1-224, L47P); assay: fluorescence anisotropy; 0.1 mM cAMP; settings: protein: recombinant; tags: His-tag (pET-3a); chain copies: 2; blunt
# T3 sequence: B1 chain with L47P
# CRP-MTB E178K [5] = target: T2, CRP-MTB E178K; assay: fluorescence anisotropy; 0.1 mM cAMP; settings: protein: recombinant; tags: His-tag (pET-3a); chain copies: 2; blunt
# CRP-MTB L47P [6] = target: T3, CRP-MTB L47P; assay: fluorescence anisotropy; no cAMP (apo); settings: protein: recombinant; tags: His-tag (pET-3a); chain copies: 2; blunt
# CRP-MTB E178K [7] = target: T2, CRP-MTB E178K; assay: fluorescence anisotropy; no cAMP (apo); settings: protein: recombinant; tags: His-tag (pET-3a); chain copies: 2; blunt
Binder,Kd [1] [nM],stoichiometry N [1],stoichiometry N [2],Ka (CRP-MTB E178K [3]),Ka (CRP-MTB L47P [4]),Ka (CRP-MTB E178K [5]),Ka (CRP-MTB L47P [6]),Ka (CRP-MTB E178K [7])
B1,< 10,2,2,–,–,–,–,–
B2,–,–,–,21 ± 12.9 1e8 M-1,7.3 ± 3 1e8 M-1,10 ± 5 1e8 M-1,2.7 ± 0.9 1e8 M-1,15 ± 5.3 1e8 M-1

# Reference: paper PMC8026907
